According to patent US12145975B2, “Fusion proteins for the treatment of cardiometabolic diseases” (Shattuck Labs, Inc., priority 2022, dated 2024):

Legend:
[1] = molecular target: T1, recombinant human Activin A (Homo sapiens, UniProt P08476); assay: MSD platform-based binding assay to plate-bound Activin A; conditions: anti-human Fc detection
T1 sequence (P08476 311-426): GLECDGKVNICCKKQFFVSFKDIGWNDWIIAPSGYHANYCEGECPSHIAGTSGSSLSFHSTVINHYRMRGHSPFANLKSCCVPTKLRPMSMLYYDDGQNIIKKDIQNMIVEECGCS
Procedure: (§1) The binding by a recombinant human ACVR2B-Fc fusion protein to activin A (also known as Inhibin beta A) was characterized using a Meso Scale Discovery (MSD) platform-based assay. Briefly, Activin A was coated on a plate and 8× serial dilutions of the purified recombinant human ACVR2B-Fc fusion protein were also added in a series of wells. The protein captured by the plate-bound Activin A was detected using an anti-human Fc antibody and a SULFO-TAG conjugated secondary antibody.
(§2) The binding to Activin A by the GLP-1-Fc-ACVR2B fusion protein produced using the mmRNA constructs was investigated using a Meso Scale Discovery (MSD) platform-based assay. Briefly, HEK293T cells were transfected with each mRNA construct using lipofectamine 2000, and culture supernatants were collected after 48 hours. Activin A was coated on a plate, and 3× serial dilutions of the culture supernatants were added to the plate for capture by the plate-bound Activin A. The protein captured by the plate-bound Activin A was detected using an anti-human Fc antibody and a SULFO-TAG conjugated secondary antibody. The MSD signals generated by the culture supernatants of HEK293T cells transfected with different mmRNA constructs were plotted as a line graph.

[2] = molecular target: T2, recombinant human GDF-8 (Homo sapiens, UniProt O14793); assay: MSD platform-based binding assay to plate-bound GDF-8; conditions: anti-human Fc detection
T2 sequence (O14793 267-375): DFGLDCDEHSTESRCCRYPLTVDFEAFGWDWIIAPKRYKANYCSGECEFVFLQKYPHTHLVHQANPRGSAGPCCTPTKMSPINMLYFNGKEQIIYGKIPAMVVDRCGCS
Procedure: as §1, with “GDF-8” for “activin A”, “myostatin)” for “Inhibin beta A)”, “GDF-8” for “Activin A”
as §2, with “GDF-8” for “Activin A”, “GDF-8.” for “Activin A.”

[3] = molecular target: T3, GIP receptor (GIPR) (Rattus norvegicus, UniProt P43219); assay: cAMP-Glo assay in rat insulinoma INS-1 cells harboring a cAMP-luciferase reporter gene; type: cell-based; conditions: 1 hour glucose, then 2 hour incubation with increasing amounts; FIG. 4A
T3 construct: endogenous in cells; host or cells: rat INS-1 insulinoma cells (derivatives with a cAMP-luciferase reporter or pGloSensor-22F)
T3 sequence (P43219 19-455): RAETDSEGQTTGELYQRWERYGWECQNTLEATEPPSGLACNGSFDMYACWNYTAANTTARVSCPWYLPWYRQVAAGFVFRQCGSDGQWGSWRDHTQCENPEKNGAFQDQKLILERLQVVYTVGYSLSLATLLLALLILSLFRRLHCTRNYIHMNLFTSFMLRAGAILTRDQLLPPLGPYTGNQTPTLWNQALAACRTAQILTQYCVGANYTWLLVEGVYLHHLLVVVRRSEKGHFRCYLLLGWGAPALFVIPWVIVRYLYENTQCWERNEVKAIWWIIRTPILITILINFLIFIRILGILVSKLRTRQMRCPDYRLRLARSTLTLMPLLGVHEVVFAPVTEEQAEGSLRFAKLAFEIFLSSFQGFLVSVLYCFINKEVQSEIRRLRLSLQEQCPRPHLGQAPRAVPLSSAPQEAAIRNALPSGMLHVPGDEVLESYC
Excerpt: Rat insulinoma INS-1 cells harboring a cAMP-luciferase reporter gene were used to study the activation of GIPR. Without wishing to be bound by theory, the activation of GIPR leads to temporary depletion of ATP because of consumption of ATP in cyclization reaction to produce cAMP as well as by phosphorylation by protein kinase A of its substrate. Without wishing to be bound by theory, the temporary depletion of ATP leads to an inhibition of luciferase activity, which needs ATP as a substrate.

[4] = tested on: rat insulinoma INS-1 cells; assay: in vitro glucose-stimulated insulin secretion (GSIS) in rat insulinoma INS-1 cells; type: cell-based; conditions: 1 hour glucose, then 2 hour incubation; ELISA; FIG. 4B
Excerpt: X is a known inducer of GSIS.

Molecule | binding to Activin A [1] | binding to GDF-8 [2] | inhibition of luciferase (activation of GIPR) [3] | insulin in the culture supernatant (glucose-stimulated insulin secretion) [4]
GLP-1-Fc-ACVR2B: GLP-1 fused to extracellular domain of ACVR2B via IgG1 Fc domain; SEQ ID NO: 154; tested as culture supernatant of mmRNA-transfected HEK293T cells | binds to the human Activin A | binds to the human GDF-8 | – | –
GIP(Ag)-Fc-FGF19: chimeric protein: GIP fused to FGF19 via IgG1 hinge-CH2-CH3 Fc domain; SEQ ID NO: 88 (protein) YAEGTFISDYSIAMDKIHQQDFVNWLLAQKGKKNDWKHNITQPCPAPEAAGGPSVFLFPPKPKDTLMISRTPEVTCVVVDVSHEDPEVKFNWYVDGVEVHNAKTKPREEQYNSTYRVVSVLTVLHQDWLNGKEYKCKVSNKALPAPIEKTISKAKGQPREPQVYTLPPSRDELTKNQVSLTCLVKGFYPSDIAVEWESNGQPENNYKTTPPVLDSDGSFFLYSKLTVDKSRWQQGNVFSCSVMHEALHNHYTQKSLSLSPGKIEGRMDRDSSPLVHYGWGDPIRLRHLYTSGPHGLSSCFLRIRADGVVDCARGQSAHSLLEIKAVALRTVAIKGVHSVRYLCMGADGKMQGLLQYSEEDCAFEEEIRPDGYNVYRSEKHRLPVSLSSAKQRQLYKNRGFLPLSHFLPMLPMVPEEPEDLRGHLESDMFSSPLETDSMDPFGLVTGLEAVRSPSFEK | – | – | dose-dependent and saturable inhibition of luciferase with similar potency | stimulated insulin production to a similar, if not greater magnitude than dulaglutide or tirzepatide
